Data on four molecules can be found in paper PMC12192683, “The LDL receptor-related protein 1 (LRP1) facilitates ACE2-mediated endocytosis of SARS-CoV2 spike protein-containing pseudovirions” (The Journal of Biological Chemistry, 2025).

As a reminder, the Kd is the equilibrium constant for the complex coming apart. Lower therefore signals tighter binding. For orientation: koff means a measure of how fast the partners let go of each other. Read a high koff as a short-lived complex. What is called kon is the rate constant with which the complex forms. A high value points to fast association.

The chains are these.
B1: LRP1 cluster III (domain or fragment)
chain: not shown
B2: LRP1 cluster II (domain or fragment)
chain: PQCQPGEFACANSRCIQERWKCDGDNDCLDNSDEAPALCHQHTCPSDRFKCENNRCIPNRWLCDGDNDCGNSEDESNATCSARTCPPNQFSCASGRCIPISWTCDLDDDCGDRSDESASCAYPTCFPLTQFTCNNGRCININWRCDNDNDCGDNSDEAGCSHSCSSTQFKCNSGRCIPEHWTCDGDNDCGDYSDETHANCTNQATRPPGGCHTDEFQCRLDGLCIPLRWRCDGDTDCMDSSDEKSCEGVTHVCDPSVKFGCKDSARCISKAWVCDGDNDCEDNSDEENCESLACRPPSHPCANNTSVCLPPDKLCDGNDDCGDGSDEGELC
B3: Soluble form of the VLDL receptor containing repeats 1 to 8 (domain or fragment)
chain: not shown
notes: also called VLDLR 1 to 8; recombinant soluble VLDLR
B4: LRP1 cluster IV (domain or fragment)
chain: not shown

The target in this experiment is T1, SARS-CoV-2 spike protein S1 subunit (Val16-Arg685) fused to the Fc region of mouse IgG1 (SARS-CoV-2, UniProt P0DTC2 16-685).
T1 construct: The SPR methods name S1-mFc for LRP1, VLDLR and LRP2; I took it as the S1 subunit of all SPR experiments; also called S1-mFc; Spike S1 subunit; source: bought: Sino Biological; not shown: Fc (mouse IgG1), C-terminal, kept
Kind of experiment: SPR; Biacore 3000; receptor amine-coupled to CM5 chip; ligand flowed in HBS-P (0.01 M HEPES pH 7.4, 0.15 M NaCl, 0.005% P20) with 1 mM CaCl2, 10 ul/min, 25 C; kinetic fit to a 1:1 Langmuir model. The following applies: both partners purified. Background: Surface plasmon resonance follows binding to a sensor surface in real time, without labels.
B1 gave a Kd of 22 nM, an off-rate (koff) of 0.00027 s⁻¹ and an on-rate constant (kon) of 12000 M⁻¹ s⁻¹.

On to B2, for which the Kd is 33 nM, the koff is 0.00042 s⁻¹ and the association rate constant (kon) turned out to be 13000 M⁻¹ s⁻¹.

Take B3: the Kd was determined as 5 nM, the dissociation rate constant (koff) is 0.00027 s⁻¹ and the kon turned out to be 110000 M⁻¹ s⁻¹.

Molecule B4 showed a Kd of 67 nM, an off-rate constant (koff) of 0.00066 s⁻¹ and a kon of 9800 M⁻¹ s⁻¹.
